# Data taken from doi:10.1101/2021.08.05.455185 (bioRxiv, 2021).
# Where two headings read alike, the source gives them in different places.
# B1: Mycobacterium smegmatis guanosine 5'-monophosphate reductase (Msm GMPR), product of the guaB1 gene (enzyme, UniProt A0QYE8 1-478, looked up)
# chain: MRFLDGHTPAYDLTYNDVFVVPGRSDVASRFDVDLSTVDGSGTTIPVVVANMTAVAGRRMAETVARRGGIVVLPQDLPITAVSETVDFVKSRDLVVDTPVTLSPEDSVSDANALLHKRAHGAAVVVFEGRPIGLVTEANCAGVDRFARVRDIALSDFVTAPVGTDPREVFDLLEHAPIDVAVMTAPDGTLAGVLTRTGAIRAGIYTPAVDAKGRLRIAAAVGINGDVGAKAQALAEAGADLLVIDTAHGHQAKMLDAIKAVASLDLGLPLVAGNVVSAEGTRDLIEAGASIVKVGVGPGAMCTTRMMTGVGRPQFSAVVECAAAARQLGGHVWADGGVRHPRDVALALAAGASNVMIGSWFAGTYESPGDLLFDRDDRPYKESYGMASKRAVAARTAGDSSFDRARKGLFEEGISTSRMSLDPARGGVEDLLDHITSGVRSTCTYVGAANLPELHEKVVLGVQSAAGFAEGHPLPAGW
# Experiments:
# [1] = target: the molecule itself; experiment: SEC
# [2] = target: the molecule itself; experiment: SEC; remark: listed apart in the source
protein,measurement,setting,value
B1,stoichiometry N,[1],4
same,stoichiometry N,[2],8
